Molecular target: ubiquitylated alpha-synuclein(1-17) model peptide 8 (desulfurized ligation product of synthetic Ub-SR 5 and peptide 7), P37840

B1: recombinant human ubiquitin C-terminal hydrolase L3 (protein)
chain: MEGQRWLPLEANPEVTNQFLKQLGLHPNWQFVDVYGMDPELLSMVPRPVCAVLLLFPITEKYEVFRTEEEEKIKSQGQDVTSSVYFMKQTISNACGTIGLIHAIANNKDKMHFESGSTLKKFLEESVSMSPEERARYLENYDAIRVTHETSAHEGQTEAPSIDEKVDLHFIALVHVDGHLYELDGRKPFPINHGETSDETLLEDAIEVCKKFMERDPDELRFNAIALSAA
enzymatic cleavage of isopeptide (hydrolysis followed by C-4 analytical RP-HPLC, 12 hours at 37 C): a complete hydrolysis was achieved

Source: US9175053
